Laboratory results reported in US20230407276, “CRISPR-CAS EFFECTOR POLYPEPTIDES AND METHODS OF USE THEREOF” (The Regents of the University of California, published 2023).

Legend:
[1] = system: PlmCasX dH2 Helical-II domain deleted; experiment: cleavage_in_vitro; settings: NTS; 37 C, Mg2+; TS value 1.741e-5; unit assumed
[2] = system: DpbCasX dH2 Helical-II domain deleted; experiment: cleavage_in_vitro; settings: NTS; 37 C, Mg2+; TS value 0.008223; unit assumed
DpbCasX (DpbCasXv1) = target: T1, DpbCasX (DpbCasXv1); experiment: cleavage_in_vitro; NTS; 37 C, Mg2+; settings: label: 5'-32P
T1 chain: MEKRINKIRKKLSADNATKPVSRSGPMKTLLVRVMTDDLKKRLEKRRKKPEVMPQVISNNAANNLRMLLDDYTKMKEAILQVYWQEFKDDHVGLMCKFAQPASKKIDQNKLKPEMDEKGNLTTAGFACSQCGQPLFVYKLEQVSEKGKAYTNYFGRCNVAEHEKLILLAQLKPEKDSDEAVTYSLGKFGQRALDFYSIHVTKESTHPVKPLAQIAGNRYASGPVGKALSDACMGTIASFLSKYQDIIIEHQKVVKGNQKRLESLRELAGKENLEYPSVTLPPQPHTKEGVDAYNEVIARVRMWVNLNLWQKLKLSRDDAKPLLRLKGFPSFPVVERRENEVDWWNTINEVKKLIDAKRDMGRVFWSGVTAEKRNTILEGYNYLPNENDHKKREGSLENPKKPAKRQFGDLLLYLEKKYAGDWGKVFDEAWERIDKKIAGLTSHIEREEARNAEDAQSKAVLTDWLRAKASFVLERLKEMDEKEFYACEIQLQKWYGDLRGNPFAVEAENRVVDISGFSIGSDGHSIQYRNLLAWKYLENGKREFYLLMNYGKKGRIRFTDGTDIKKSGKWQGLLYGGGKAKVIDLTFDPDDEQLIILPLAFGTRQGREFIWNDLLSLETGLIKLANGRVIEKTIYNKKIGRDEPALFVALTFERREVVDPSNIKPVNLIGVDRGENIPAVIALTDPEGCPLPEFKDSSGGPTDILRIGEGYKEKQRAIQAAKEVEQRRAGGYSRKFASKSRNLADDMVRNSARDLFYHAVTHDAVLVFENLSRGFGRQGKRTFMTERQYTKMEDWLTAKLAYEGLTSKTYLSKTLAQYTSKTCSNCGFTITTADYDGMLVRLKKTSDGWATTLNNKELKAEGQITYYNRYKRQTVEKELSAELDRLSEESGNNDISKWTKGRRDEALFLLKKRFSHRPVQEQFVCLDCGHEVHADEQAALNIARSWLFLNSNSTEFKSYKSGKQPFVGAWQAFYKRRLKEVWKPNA
From the text: (§1) FIG. 14A-14G. Updated design of the CasX sgRNA. […] The coverage axis denotes the number of sequencing reads. The abscissa denotes the genome sequence of the hypothetical tracrRNA region. (B) The structural details for sgRNAv1. The additional U at the 5′ end was hypothetically modeled in the top panel. The structural details of the G30-C54 base-paring region in sgRNAv1 are also shown in the bottom panel. […] The sgRNAv1-2 architecture is modeled based on sgRNAv1. The potential base-pairing between the additional 5′ U and A29 is labeled with a dashed line. The Helical-II domain was modeled to indicate the interaction interface with the sgRNA scaffold stem. (D) In vitro dsDNA cleavage activity comparison among different sgRNAs by DpbCasX and PlmCasX. The NTS was ³²P labeled on the 5′ end. (E) Cleavage kinetics analysis was based on the NTS band density from the cleaved fractions compared to the input NTS band density at the reaction time of 0 min (n=3, mean±s.d.) (DpbCasX-v2 from FIG. 15A). The fractions were collected from 0 min to 6 hrs. […] (F) The hypothetical secondary architectures of sgRNAv2 designs. […] The fractions were collected at 0 min, 10 mins, 20 mins, 40 mins, 1 hr, 2 hrs, 4 hrs and 6 hrs, respectively. OC/N indicates the open-circle or nicked plasmids, L indicates the linearized plasmids and SC indicates the super-coiled plasmids (n=3, representative gel shown).

PlmCasX (PlmCasXv1) = target: T2, PlmCasX (PlmCasXv1); experiment: cleavage_in_vitro; NTS; 37 C, Mg2+; settings: label: 5'-32P
T2 chain: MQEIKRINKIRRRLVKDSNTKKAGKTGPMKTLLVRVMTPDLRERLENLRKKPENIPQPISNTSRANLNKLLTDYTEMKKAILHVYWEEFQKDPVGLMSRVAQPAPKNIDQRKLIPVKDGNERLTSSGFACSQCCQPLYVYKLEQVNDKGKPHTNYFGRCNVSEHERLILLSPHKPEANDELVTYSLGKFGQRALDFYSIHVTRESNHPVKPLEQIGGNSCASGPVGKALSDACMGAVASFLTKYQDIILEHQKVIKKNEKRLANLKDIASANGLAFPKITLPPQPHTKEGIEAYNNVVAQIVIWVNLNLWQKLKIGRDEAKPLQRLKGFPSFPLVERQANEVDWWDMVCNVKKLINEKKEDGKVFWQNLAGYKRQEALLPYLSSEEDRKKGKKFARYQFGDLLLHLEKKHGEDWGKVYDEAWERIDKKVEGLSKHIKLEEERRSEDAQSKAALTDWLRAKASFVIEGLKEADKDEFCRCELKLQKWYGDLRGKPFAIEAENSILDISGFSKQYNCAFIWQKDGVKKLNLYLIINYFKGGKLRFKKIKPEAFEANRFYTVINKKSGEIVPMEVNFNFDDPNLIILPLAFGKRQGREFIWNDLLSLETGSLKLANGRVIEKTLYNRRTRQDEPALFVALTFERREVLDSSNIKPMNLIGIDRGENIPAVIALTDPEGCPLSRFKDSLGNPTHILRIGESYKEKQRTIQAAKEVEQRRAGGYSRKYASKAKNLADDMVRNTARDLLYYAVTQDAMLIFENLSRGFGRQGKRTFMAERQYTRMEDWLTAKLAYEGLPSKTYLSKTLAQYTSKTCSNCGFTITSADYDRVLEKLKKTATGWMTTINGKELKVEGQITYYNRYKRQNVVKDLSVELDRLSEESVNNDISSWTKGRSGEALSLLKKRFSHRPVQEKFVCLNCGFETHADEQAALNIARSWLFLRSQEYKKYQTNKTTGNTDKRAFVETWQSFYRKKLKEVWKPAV
From the text: as §1

Question: What does the source list for “GGCGCGUUUAUUCCAUUACUUUGGAGCCAGUCCCAGCGACUAUGUCGUAUGGACGAAGCGCUUAUUUAUCGGAGAGAAACCGAUAAGUAAAACGCAUCAAAGUCCUGCAGCAGAAAAUCAAA / ATCGTTATACTTTGATTTTCTGCTGCAGGATGAAATCCCG / CGGGATTTCATCCTGCAGCAGAAAATCAAAGTATAACGAT [sgRNAv1 ; dsDNA target 40 bp]”?
Answer: activity [1]: 0.00268 min⁻¹; activity [2]: 0.00671 min⁻¹

B1: sgRNAv1-2 ; dsDNA target 40 bp (ssRNA ; dsDNA)
RNA: UGGCGCGUUUAUUCCAUUACUUUGGAGCCAGUCCCAGCGACUAUGUCGUAUGGACGAAGCGCUUAUUUAUCGGAGAGAAACCGAUAAGUAAAACGCAUCAAAGUCCUGCAGCAGAAAAUCAAAG
DNA 1: ATCGTTATACTTTGATTTTCTGCTGCAGGATGAAATCCCG
DNA 2: CGGGATTTCATCCTGCAGCAGAAAATCAAAGTATAACGAT
Question: B1 was tested. Which activity (DpbCasX (DpbCasXv1)) did it give?
Answer: 0.0109 k (unit not stated; min-1 inferred)

B2: sgRNAv2-2 ; dsDNA target 40 bp (ssRNA ; dsDNA)
RNA: UGGCGCUUUUAUCUCAUUACUUUGAGAGCCAUCACCAGCGACUAUGUCGUAUGGGUAAAGCGCUUAUUUAUCGGAGAAACCGAUAAAUAAGAAGCAUCAAAGUCCUGCAGCAGAAAAUCAAAG
DNA 1: B1 DNA 1
DNA 2: B1 DNA 2
Question: B2 was tested. Which activity (PlmCasX (PlmCasXv1)) did it give?
Answer: 0.00919 k (unit not stated; min-1 inferred)

B3: sgRNAv2-3 ; dsDNA target 40 bp (ssRNA ; dsDNA)
RNA: UACUGGCGCUUUUAUCUCAUUACUUUGAGAGCCAUCACCAGCGACUAUGUCGUAUGGGUAAAGCGCUUAUUUAUCGGAGAAACCGAUAAAUAAGAAGCAUCAAAGUCCUGCAGCAGAAAAUCAAAG
DNA 1: B1 DNA 1
DNA 2: B1 DNA 2
Question: For B3, which activity (PlmCasX (PlmCasXv1)) is on record?
Answer: 0.0217 k (unit not stated; min-1 inferred)
